The record followed here is patent US20230406951A1 (Pfizer, published 2023).

This assay has as its target T1, human TNFR2 (human, UniProt P20333 23-461).
T1 construct: expressed on the surface of CHO cells; also called HuTNFR2; TNFRSF1B
T1 sequence: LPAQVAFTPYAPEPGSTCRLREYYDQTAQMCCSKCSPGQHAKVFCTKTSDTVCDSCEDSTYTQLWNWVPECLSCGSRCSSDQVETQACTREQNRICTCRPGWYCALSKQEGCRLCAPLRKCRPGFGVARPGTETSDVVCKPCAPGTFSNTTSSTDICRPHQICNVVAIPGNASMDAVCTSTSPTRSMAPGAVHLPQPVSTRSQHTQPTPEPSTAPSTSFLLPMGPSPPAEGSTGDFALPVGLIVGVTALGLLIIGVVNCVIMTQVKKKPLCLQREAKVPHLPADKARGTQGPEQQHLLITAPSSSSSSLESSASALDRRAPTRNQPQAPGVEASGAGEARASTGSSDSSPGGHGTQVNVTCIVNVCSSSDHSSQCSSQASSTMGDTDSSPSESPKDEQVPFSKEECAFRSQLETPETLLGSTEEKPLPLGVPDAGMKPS
In words: binding to human TNFR2 CHO cells.

Where a chain is given by its changes, count along the chain named.

B1: TetraFab 2063 (antibody)
heavy: QVQLVQSGAEVKKPGASVKVSCKVSGFSFPSSGVDWVRQAPGQGLEWLGVTKGQGSTHYNQKFQGRVTITKDTSKSTVYMELSSLRSEDTAVYYCASGESTEGFVYWGQGTLVTVSSASTKGPSVFPLAPSSKSTSGGTAALGCLVKDYFPEPVTVSWNSGALTSGVHTFPAVLQSSGLYSLSSVVTVPSSSLGTQTYICNVNHKPSNTKVDKKVEPKSCGGGGSQVQLVQSGAEVKKPGASVKVSCKVSGFSFPSSGVDWVRQAPGQGLEWLGVTKGQGSTHYNQKFQGRVTITKDTSKSTVYMELSSLRSEDTAVYYCASGESTEGFVYWGQGTLVTVSSASTKGPSVFPLAPSSKSTSGGTAALGCLVKDYFPEPVTVSWNSGALTSGVHTFPAVLQSSGLYSLSSVVTVPSSSLGTQTYICNVNHKPSNTKVDKKVEPKSCDKTHTCPPCPAPEAAGAPSVFLFPPKPKDTLMISRTPEVTCVVVDVSHEDPEVKFNWYVDGVEVHNAKTKPREEQYNSTYRVVSVLTVLHQDWLNGKEYKCKVSNKALPAPIEKTISKAKGQPREPQVYTLPPSREEMTKNQVSLTCLVKGFYPSDIAVEWESNGQPENNYKTTPPVLDSDGSFFLYSKLTVDKSRWQQGNVFSCSVMHEALHNHYTQKSLSLSPGK
light: DIQLTQSPSFLSASVGDRVTITCKASQNVGTAVAWYQQKPGKAPKLLIYAASTLQSGVPSRFSGSGSGTEFTLTISSLQPEDFATYYCQQYSSYPLTFGGGTKVEIKRTVAAPSVFIFPPSDEQLKSGTASVVCLLNNFYPREAKVQWKVDNALQSGNSQESVTEQDSKDSTYSLSSTLTLSKADYEKHKVYACEVTHQGLSSPVTKSFNRGEC
notes: TetraFab
Regarding B1, the binding result is recorded as “no binding”.

B2: TetraFab 2075 (antibody)
heavy: B1 heavy with K52L, Q54H, K277L, Q279H
light: B1 light
notes: TetraFab
For B2, the binding result is reported as “no binding”.

B3: TetraFab 2065 (antibody)
heavy: B1 heavy with S100R, T101D, S325R, T326D
light: B1 light
notes: TetraFab
Take B3: the binding result is on record as “no binding”.

B4: TetraFab 2079 (antibody)
heavy: B1 heavy with K52H, Q54S, K277H, Q279S
light: B1 light
notes: TetraFab
For the molecule B4, the binding result was “no binding”.

B5: TetraFab 2153 (antibody)
heavy: B1 heavy with S100Q, T101D, S325Q, T326D
light: B1 light with Q89L, Y91K
notes: TetraFab
Consider B5, for which the binding result is “no binding”.

B6: TetraFab 2076 (antibody)
heavy: B1 heavy with K52L, Q54H, S100H, T101D, K277L, Q279H, S325H, T326D
light: B1 light
notes: TetraFab
B6: the binding result was “no binding”.

B7: TetraFab 2150 (antibody)
heavy: B1 heavy
light: B1 light with Q89L, Y91K
notes: TetraFab
B7: the binding result is on record as “no binding”.

B8: TetraFab 2147 (antibody)
heavy: B1 heavy with K52W, Q54V, S100H, T101D, K277W, Q279V, S325H, T326D
light: B1 light with Q89L, Y91K
notes: TetraFab
Take B8: the binding result is “no binding”.

B9: TetraFab 2069 (antibody)
heavy: B1 heavy with K52R, Q54E, S100R, T101D, K277R, Q279E, S325R, T326D
light: B1 light
notes: TetraFab
Regarding B9, the binding result was “no binding”.

B10: TetraFab 2143 (antibody)
heavy: B1 heavy with K52F, G53Q, Q54E, S100W, T101D, K277F, G278Q, Q279E, S325W, T326D
light: B1 light with Q89L, Y91K
notes: TetraFab
As for B10, the binding result is given as “no binding”.

B11: TetraFab 2066 (antibody)
heavy: B1 heavy with S100Q, T101D, S325Q, T326D
light: B1 light
notes: TetraFab
As to B11, the binding result is recorded as “no binding”.

B12: TetraFab 2142 (antibody)
heavy: B1 heavy with K52R, Q54E, S100W, T101D, K277R, Q279E, S325W, T326D
light: B1 light with Q89L, Y91K
notes: TetraFab
In the case of B12, the binding result is listed as “no binding”.
